# Laboratory results as given in US20220153819A1 (Regeneron, published 2022).
# Like-named read-outs stand apart in the source and are kept apart here.
# Experiments:
# [1] = molecular target: T1, IsdB.6×(His) (Staphylococcus aureus, UniProt A6QG30 41-613); assay: SPR (Biacore 8k), 25C; IsdB-6xHis captured via anti-His, bsAb injected
# [2] = molecular target: T2, hemagglutinin (HA) on A/Puerto Rico/08/1934 (H1N1)-infected MDCK cells (Influenza A virus A/Puerto Rico/08/1934 …, UniProt P03452 18-565); assay: cell-based or functional assay
# [3] = molecular target: T1, IsdB.6×(His); assay: SPR (Biacore T200), 37C; antibody captured, IsdB.6xHis injected
# [4] = molecular target: T3, biotinylated human C1q (human, UniProt P02745 23-245; P02746 28-253; P02747 29-245); assay: SPR (Biacore), 37C; biotinylated hC1q captured at low density, bsAb injected
# T3 construct: also called Bt hC1q; bt-hC1q
# [5] = molecular target: T1, IsdB.6×(His); assay: SPR (Biacore T200), 25C; bsAb captured, IsdB-6xHis injected
# [6] = molecular target: T4, human complement component 1q (C1q) (human, UniProt P02745 23-245; P02746 28-253; P02747 29-245); assay: SPR (Biacore T200), 25C; bsAb captured via anti-human F(ab')2, hC1q injected
# T4 construct: also called hC1q; human C1q (Quidel)
# [7] = molecular target: T5, IsdB on the surface of S. aureus Newman Δspa (Staphylococcus aureus, UniProt A6QG30 41-613); assay: ELISA, plate coated with S. aureus Newman Δspa, luminescence
# T5 construct: whole, on cells; also called iron-regulated surface determinant protein B
# [8] = molecular target: T3, biotinylated human C1q
# [9] = molecular target: T4, human complement component 1q (C1q); assay: cell-based or functional assay
# [10] = molecular target: T4, human complement component 1q (C1q)
# [11] = molecular target: mouse C1q (mouse, UniProt P98086 23-245; P14106 26-253; Q02105 30-246); assay: not described
# [12] = molecular target: T1, IsdB.6×(His); assay: SPR (Biacore 8k), 37C; IsdB-6xHis captured via anti-His, bsAb injected
# [13] = molecular target: T1, IsdB.6×(His); assay: SPR (Biacore T200), 37C; bsAb captured, IsdB-6xHis injected
# [14] = molecular target: T4, human complement component 1q (C1q); assay: SPR (Biacore T200), 37C; bsAb captured via anti-human F(ab')2, hC1q injected
# [15] = molecular target: T2, hemagglutinin (HA) on A/Puerto …; assay: cell ELISA on fixed A/Puerto Rico/08/1934 (H1N1)-infected MDCK cells
# [16] = molecular target: T1, IsdB.6×(His); assay: SPR (Biacore), 37C; IsdB.6xHis captured, bsAb injected
# [17] = molecular target: T4, human complement component 1q (C1q); remark: listed apart in the source
# [18] = molecular target: T3, biotinylated human C1q; remark: listed apart in the source
# T4 sequence (P02745 23-245, chain 1 of 3): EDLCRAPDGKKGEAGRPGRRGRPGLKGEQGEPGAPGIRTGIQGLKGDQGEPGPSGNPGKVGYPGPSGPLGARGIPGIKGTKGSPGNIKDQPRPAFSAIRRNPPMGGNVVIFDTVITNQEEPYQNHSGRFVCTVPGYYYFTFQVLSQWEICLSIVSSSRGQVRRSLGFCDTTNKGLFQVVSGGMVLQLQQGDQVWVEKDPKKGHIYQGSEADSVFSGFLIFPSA
# T4 sequence (P02746 28-253, chain 2 of 3): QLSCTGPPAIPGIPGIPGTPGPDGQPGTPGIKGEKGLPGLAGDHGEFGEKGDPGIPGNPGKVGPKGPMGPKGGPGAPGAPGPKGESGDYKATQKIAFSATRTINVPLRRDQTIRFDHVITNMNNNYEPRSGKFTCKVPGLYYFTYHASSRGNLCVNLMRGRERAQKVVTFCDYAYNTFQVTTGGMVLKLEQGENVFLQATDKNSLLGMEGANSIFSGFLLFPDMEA
# T4 sequence (P02747 29-245, chain 3 of 3): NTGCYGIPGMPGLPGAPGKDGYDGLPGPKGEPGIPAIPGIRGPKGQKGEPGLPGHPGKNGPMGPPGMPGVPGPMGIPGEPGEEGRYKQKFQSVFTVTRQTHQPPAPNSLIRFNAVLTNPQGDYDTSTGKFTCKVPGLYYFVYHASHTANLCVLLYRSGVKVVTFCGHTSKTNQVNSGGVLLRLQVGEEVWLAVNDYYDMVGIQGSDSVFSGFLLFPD
# T3 sequence (P02745 23-245, chain 1 of 3): as the sequence (P02745 23-245, chain 1 of 3) above
# T3 sequence (P02746 28-253, chain 2 of 3): as the sequence (P02746 28-253, chain 2 of 3) above
# T3 sequence (P02747 29-245, chain 3 of 3): as the sequence (P02747 29-245, chain 3 of 3) above
# Sequence of mouse C1q (P98086 23-245 limits assumed, chain 1 of 3): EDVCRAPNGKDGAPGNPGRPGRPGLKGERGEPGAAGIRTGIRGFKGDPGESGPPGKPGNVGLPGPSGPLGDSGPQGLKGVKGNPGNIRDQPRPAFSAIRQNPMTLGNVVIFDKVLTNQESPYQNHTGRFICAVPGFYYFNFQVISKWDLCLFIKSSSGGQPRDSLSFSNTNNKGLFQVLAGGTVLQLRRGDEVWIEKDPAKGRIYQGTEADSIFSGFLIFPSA
# Sequence of mouse C1q (P14106 26-253 limits assumed, chain 2 of 3): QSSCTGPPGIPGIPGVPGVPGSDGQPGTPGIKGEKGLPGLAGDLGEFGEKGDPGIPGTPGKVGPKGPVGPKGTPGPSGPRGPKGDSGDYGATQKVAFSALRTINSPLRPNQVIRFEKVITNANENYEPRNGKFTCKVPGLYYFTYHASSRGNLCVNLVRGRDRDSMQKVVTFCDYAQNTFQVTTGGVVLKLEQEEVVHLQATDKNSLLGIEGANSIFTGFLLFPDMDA
# Sequence of mouse C1q (Q02105 30-246 limits assumed, chain 3 of 3): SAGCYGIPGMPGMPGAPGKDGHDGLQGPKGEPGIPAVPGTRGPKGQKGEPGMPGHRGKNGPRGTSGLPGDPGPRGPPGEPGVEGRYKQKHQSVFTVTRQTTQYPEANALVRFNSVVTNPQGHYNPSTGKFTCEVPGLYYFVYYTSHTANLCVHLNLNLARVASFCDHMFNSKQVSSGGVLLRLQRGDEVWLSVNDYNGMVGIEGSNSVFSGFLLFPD
binder,measurement,setting,value
"REGN5066, anti-IsdB x anti-C1q bispecific antibody (bispecific antibody, V domains shown, also called bsC1q × IsdB; bs hC1q × IsdB) VH 1: EVQLVESGGGLVQPGRSLRLSCTTSGFTFDDYAMHWVRQVPGQGLEWVAGLSWNSDTIGYADSVKGRFTISRDNAKNSLYLQMKSLKAEDTALYYCTKDFYHSLNNWNYYYFDYWGQGTLVTVSS VH 2: EVQLVESGGGVVQPGGSLRLSCAASGFSLDDYAMHWVRQTPGKGLEWVSLISGDGSRTSYADSVKGRFTISRDNSKNSLYLKMNSLRTEDTALYYCTKDPHNSNWFDPWGQGTLVTVSS VL: not shown",Kd,[1],2.3 nM
same,koff,[1],0.00105 s⁻¹
same,kon,[1],457000 M⁻¹ s⁻¹
same,t1/2,[1],11 min
same,CDC EC50 (H1N1-infected MDCK cells),[2],> 889 nM
same,Maximum percent specific lysis (CDC of H1N1-infected MDCK cells),[2],-6.15%
same,Kd,[3],3.43 nM
same,T1/2,[3],21 min
same,koff,[3],0.000557 s⁻¹
same,kon,[3],163000 M⁻¹ s⁻¹
same,Kd,[4],3.67 µM
same,T1/2,[4],0.12 min
same,koff,[4],0.0964 s⁻¹
same,kon,[4],26200 M⁻¹ s⁻¹
same,Kd,[5],2.36 nM
same,koff,[5],0.00027 s⁻¹
same,kon,[5],115000 M⁻¹ s⁻¹
same,t1/2,[5],42.8 min
same,Kd,[6],0.842 nM
same,koff,[6],0.00211 s⁻¹
same,kon,[6],2.51e+06 M⁻¹ s⁻¹
same,t1/2,[6],5.5 min
same,EC50,[7],0.19 nM
same,Kd,[8],666 nM
same,koff,[8],0.0782 s⁻¹
same,kon,[8],117000 M⁻¹ s⁻¹
same,t1/2,[8],0.15 min
same,"C1q deposition on S. aureus (plate-based, anti-C1q detection), EC50",[9],127 pM
same,Kd,[10],1.56 nM
same,T1/2,[10],2.3 min
same,koff,[10],0.00502 s⁻¹
same,kon,[10],3.22e+06 M⁻¹ s⁻¹
same,binding result,[11],no binding
same,Kd,[12],7.52 nM
same,koff,[12],0.00657 s⁻¹
same,kon,[12],874000 M⁻¹ s⁻¹
same,t½,[12],1.8 min
same,Kd,[13],3.43 nM
same,koff,[13],0.000557 s⁻¹
same,kon,[13],163000 M⁻¹ s⁻¹
same,t1/2,[13],20.7 min
same,koff,[14],0.00502 s⁻¹
same,kon,[14],3.22e+06 M⁻¹ s⁻¹
same,t1/2,[14],2.3 min
same,Maximum binding (RLUs),[15],2500 RLU
same,Kd,[16],7.52 nM
same,T1/2,[16],1.8 min
same,koff,[16],0.00657 s⁻¹
same,kon,[16],874000 M⁻¹ s⁻¹
same,Kd,[17],3.23 nM
same,T1/2,[17],3.5 min
same,koff,[17],0.00334 s⁻¹
same,kon,[17],1.03e+06 M⁻¹ s⁻¹
same,Kd,[18],402 nM
same,koff,[18],0.0366 s⁻¹
same,kon,[18],91100 M⁻¹ s⁻¹
same,t1/2,[18],0.32 min
